Measurements reported in PMC5552345 (PLoS Pathogens, 2017).
Positions count from the first letter of the chain named. Names may count otherwise.

T1: (NANP)6 peptide (Plasmodium falciparum CSP repeat, …)
T1 construct: printed as (NANP)6, written out here; a short segment of the antigenic NANP-repeat region of P. falciparum CSP; also called synthetic peptide antigen (NANP)6; source: synthetic peptide
T1 chain: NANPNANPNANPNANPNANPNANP

T2: (NANP)9 peptide (Plasmodium falciparum CSP repeat, …)
T2 construct: printed as (NANP)9, written out here; NANP repeat of P. falciparum CSP
T2 chain: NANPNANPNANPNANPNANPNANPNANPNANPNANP

B1: 2A10 antigen-binding fragment (FAB) (Fab, V domains shown)
VH: QIQLVQSGPELKKPGETVKISCKASGYTFTNYGINWVKQAPGKGLKWMGWINTITEEPTFAEEFTGRFAFSLETSASTAYLQINNLKNEDTATYFCARGSEFGRLVYWGQGASVTVSS
VL: DIQMTQTTSSLSASLGDRVTISCSASQGISNYLNWYQQKPDGTVKLLIFYTSTLYSGVPSRFSGSGSGTDYSLTISNLEPEDIATYYCQQYSRFPYVFGGGTKLEIK
notes: heavy chain part of the 2A10 FAB; as the heavy chain of m1; light chain of the 2A10 FAB; as the light chain of m1; also called 2A10 FAB; 2A10 FAB fragment; source: purified
B2: 2A10 gAb with light chain H68Y (antibody, V domains shown)
VH: B1 VH with I34M, I54N, E56G, F60Y, T65K, V106D
VL: B1 VL with F49Y, T53S, R93K, F94L, V97T
notes: as the heavy chain of m17 (gHC); as the light chain of m17 (gLC); source: HEK293T cells, expressed
B3: recombinant antibody corresponding to the 2A10 mAb (antibody, V domains shown)
VH: B1 VH
VL: B1 VL
notes: 2A10 heavy chain (mHC), as the heavy chain of m1; FAB part in the deposited structures; 2A10 light chain (mLC), as the light chain of m1; in the deposited structures; also called mHC + mLC; source: HEK293T cells, expressed
B4: hybrid antibody mLC + gHC with heavy chain T67F (antibody, V domains shown)
VH: B1 VH with I34M, I54N, E56G, T65K, V106D
VL: B1 VL
notes: as the heavy chain of m17 (gHC); as the light chain of m7; source: HEK293T cells, expressed
B5: predicted germline precursor to the 2A10 antibody (2A10 gAb) (antibody, V domains shown)
VH: B1 VH with I34M, I54N, E56G, F60Y, T65K, V106D
VL: B1 VL with F49Y, T53S, Y55H, R93K, F94L, V97T
notes: predicted germline heavy chain (gHC) of 2A10 by V-quest; the 2A10 heavy chain carries 6 mutations against it; predicted germline light chain (gLC) of 2A10 by V-quest; the 2A10 light chain carries 7 mutations against it; also called gHC + gLC; source: HEK293T cells, expressed
B6: hybrid antibody mLC + gHC with heavy chain M39I (antibody, V domains shown)
VH: B1 VH with I54N, E56G, F60Y, T65K, V106D
VL: B1 VL
notes: as for B4
B7: hybrid antibody: 2A10 light chain (mLC) paired with germline heavy chain (gHC) (antibody, V domains shown)
VH: B1 VH with I34M, I54N, E56G, F60Y, T65K, V106D
VL: B1 VL
notes: as the heavy chain of m17 (gHC); as the light chain of m7; also called mLC + gHC; source: HEK293T cells, expressed
B8: 2A10 gAb with light chain T117V (antibody, V domains shown)
VH: B1 VH with I34M, I54N, E56G, F60Y, T65K, V106D
VL: B1 VL with F49Y, T53S, Y55H, R93K, F94L
notes: as for B2
B9: 2A10 gAb with light chain L114F and T117V (antibody, V domains shown)
VH: B1 VH with I34M, I54N, E56G, F60Y, T65K, V106D
VL: B1 VL with F49Y, T53S, Y55H, R93K
notes: as the heavy chain of m17 (gHC); as the light chain of m17 (gLC); also called L114F and T117V introduced simultaneously; source: HEK293T cells, expressed
B10: 2A10 gAb with light chain L114F (antibody, V domains shown)
VH: B1 VH with I34M, I54N, E56G, F60Y, T65K, V106D
VL: B1 VL with F49Y, T53S, Y55H, R93K, V97T
notes: as for B2
B11: hybrid antibody mLC + gHC with heavy chain N59I (antibody, V domains shown)
VH: B1 VH with I34M, E56G, F60Y, T65K, V106D
VL: B1 VL
notes: as for B4

What was measured:
[1] = target: T1, (NANP)6 peptide; assay: ITC; 25°C; titration of 2A10 FAB or complete 2A10 with antigen; independent binding sites model; single titration each; details: both partners purified
[2] = target: T2, (NANP)9 peptide; assay: ELISA; recombinant 2A10, germline precursor, hybrids and their point mutants tested on the (NANP)9 peptide; details in S1 Methods

Binder	binding result [2]	further results
B1		Ka [1]: 2.37e+06 M⁻¹; Kd [1]: 420 nM; dH [1]: -113 kJ/mol complex; stoichiometry N [1]: 2.16 FAB per Ag
B2	binds	
B3	binds	
B4	binds	
B5	binds	
B6	binds	
B7	binds	
B8	binds	
B9	binds	
B10	binds	
B11	binds	
